Measurements as given in paper PMC7672431, “NMR structure of a vestigial nuclease provides insight into the evolution of functional transitions in viral dsDNA packaging motors” (Nucleic Acids Research, 2020).

Key:
[1] = biological target: phi29 gp16 CTD (residues 223–332; C-terminal domain of the packaging ATPase) (bacteriophage phi29) (UniProt P11014); assay: AUC; sedimentation velocity, 42 000 rpm, 30°C, c(s) distribution in SEDFIT; CTD-L at 25 and 55 μM, CTD at 30 and 85 μM
[2] = biological target: T1, gp16 CTD (C-terminal domain of DNA packaging ATPase) (bacteriophage phi29, UniProt P11014 223-332); assay: fluorescence intensity titration; Fluorescence: 50 mM sodium phosphate pH 6.5, 200 mM NaCl, temperature not stated; NMR: same buffer plus 0.02% NaN3, 2 mM DSS, ~100 uM protein, 303 K; details: protein: recombinant, tags: His tag implied (pET30a NdeI/XhoI, Talon resin)
T1 sequence: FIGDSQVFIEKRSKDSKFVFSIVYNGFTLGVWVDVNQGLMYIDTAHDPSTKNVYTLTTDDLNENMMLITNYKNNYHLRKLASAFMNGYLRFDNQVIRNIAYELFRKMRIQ

[3] = biological target: T2, phi29 DNA packaging ATPase gp16, full length, assembled as a pentameric ring in the packaging motor on procapsids (bacteriophage phi29), P11014; assay: cryo-EM structure; NMR structure of the CTD fitted into a ∼5.2 Å cryoEM map of phi29 particles stalled during packaging with γ-S-ATP (map of ref. 25; CTD density 5-fold averaged); details: remark: other sources report otherwise
T2 chain: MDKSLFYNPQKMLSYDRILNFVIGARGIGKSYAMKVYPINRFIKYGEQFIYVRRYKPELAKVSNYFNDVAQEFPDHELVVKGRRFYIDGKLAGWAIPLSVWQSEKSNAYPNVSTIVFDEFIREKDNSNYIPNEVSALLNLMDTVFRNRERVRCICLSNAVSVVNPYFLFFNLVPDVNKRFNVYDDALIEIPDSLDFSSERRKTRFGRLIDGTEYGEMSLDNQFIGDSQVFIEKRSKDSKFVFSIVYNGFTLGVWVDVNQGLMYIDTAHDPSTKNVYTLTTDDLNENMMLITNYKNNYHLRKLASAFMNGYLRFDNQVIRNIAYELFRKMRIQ

[4] = biological target: the molecule itself; assay: AUC; sedimentation velocity, 42 000 rpm, 30°C, c(s) distribution in SEDFIT; CTD-L at 25 and 55 μM, CTD at 30 and 85 μM

phi29 gp16 CTD (residues 223–332; C-terminal domain of the packaging ATPase) (from UniProt P11014 223-332) (domain or fragment)
percent dimers at 30 and 85 μM [1]: 2%

B1: 22 bp dsDNA, 3'-fluorescein (dsDNA)
DNA 1: GGTATCATGTGAGGGTGGGGGC
DNA 2: GCCCCCACCCTCACATGATACC
Kd ([2]; label: 3' fluorescein (36FAM) on strand 1, blunt): 3.1 µM

B2: phi29 DNA packaging ATPase gp16, full length, assembled as a pentameric ring in the packaging motor on procapsids, P11014 1-332 (enzyme)
chain: T2 chain
stoichiometry N [3]: 5

B3: pRNA A-helix mimic, 3'-fluorescein (structured_RNA)
RNA: UCAAUGGUACGGUACUUCCAUUGUCAUGUUUUUCAUGGCAAAAGUGCACGCUACUUUGAU
Kd ([2]; label: 3' fluorescein (36FAM), hairpin): 3.2 µM

B4: phi29 gp16 CTD-L (residues 208–332; inter-domain linker and C-terminal domain of the packaging ATPase) (domain or fragment, bacteriophage phi29, UniProt P11014 208-332, looked up)
chain: LIDGTEYGEMSLDNQFIGDSQVFIEKRSKDSKFVFSIVYNGFTLGVWVDVNQGLMYIDTAHDPSTKNVYTLTTDDLNENMMLITNYKNNYHLRKLASAFMNGYLRFDNQVIRNIAYELFRKMRIQ
notes: DNA packaging ATPase gp16 of bacteriophage phi29 (332 amino acids), residues 208-332: inter-domain linker plus C-terminal domain; Cloned between NdeI and XhoI of pET30a, which would add a C-terminal His6 tag (surmised); Isotope-labelled for the NMR experiments; also called gp16 CTD-L (208–332); source: E. coli BL21(DE3), pET30a, purified (Talon resin, HiTrap Q HP)
stoichiometry N [4]: 2
